According to publication PMC7841527:

Columns and labels:
[1] = molecular target: FLAG-tagged HDAC4 p.Glu247Gly variant (human); assay: co-IP; HEK293 cells co-transfected with FLAG-HDAC4 (native or variant) and HA-14-3-3β; ~48 h post-transfection cleared extracts immunoprecipitated with anti-FLAG antibody; western blot with anti-HA; blots quantified with ImageJ relative to HDAC4 and 14-3-3β loading controls
[2] = molecular target: FLAG-tagged HDAC4 p.Thr244Lys variant (human); assay: as above
FLAG-tagged HDAC4 p.Thr244Lys variant (human), sequence (P56524 whole entry T244K): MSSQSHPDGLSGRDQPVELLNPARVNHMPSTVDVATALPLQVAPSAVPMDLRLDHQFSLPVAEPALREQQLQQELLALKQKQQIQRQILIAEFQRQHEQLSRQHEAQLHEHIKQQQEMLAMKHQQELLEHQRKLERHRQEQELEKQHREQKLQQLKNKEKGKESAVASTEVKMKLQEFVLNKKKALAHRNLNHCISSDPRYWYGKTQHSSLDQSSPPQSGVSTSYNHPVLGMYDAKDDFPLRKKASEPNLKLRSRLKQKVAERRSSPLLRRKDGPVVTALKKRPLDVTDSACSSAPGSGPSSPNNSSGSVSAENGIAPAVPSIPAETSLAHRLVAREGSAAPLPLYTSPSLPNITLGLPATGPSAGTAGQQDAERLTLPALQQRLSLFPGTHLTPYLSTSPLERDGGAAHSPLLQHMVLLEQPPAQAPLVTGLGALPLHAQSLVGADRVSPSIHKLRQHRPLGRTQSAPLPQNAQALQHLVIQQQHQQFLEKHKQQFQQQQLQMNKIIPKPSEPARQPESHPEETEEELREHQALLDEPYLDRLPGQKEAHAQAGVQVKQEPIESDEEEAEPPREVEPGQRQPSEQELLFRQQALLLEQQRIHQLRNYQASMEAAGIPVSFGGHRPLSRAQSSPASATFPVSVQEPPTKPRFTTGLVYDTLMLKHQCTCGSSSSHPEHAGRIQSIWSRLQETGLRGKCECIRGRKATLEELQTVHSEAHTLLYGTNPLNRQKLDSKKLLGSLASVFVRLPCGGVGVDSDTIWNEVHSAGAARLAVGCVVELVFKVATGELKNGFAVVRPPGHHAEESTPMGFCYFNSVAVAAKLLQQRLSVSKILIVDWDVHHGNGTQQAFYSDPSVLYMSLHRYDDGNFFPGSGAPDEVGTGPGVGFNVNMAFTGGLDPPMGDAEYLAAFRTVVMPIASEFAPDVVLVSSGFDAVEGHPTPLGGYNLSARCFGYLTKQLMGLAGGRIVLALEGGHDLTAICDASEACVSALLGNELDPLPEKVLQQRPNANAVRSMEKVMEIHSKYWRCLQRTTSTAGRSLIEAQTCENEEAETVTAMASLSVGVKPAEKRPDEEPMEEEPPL

FLAG-tagged HDAC4 p.Glu247Gly variant (human), sequence (P56524 whole entry E247G): as the sequence (P56524 whole entry T244K) above, with K244T, E247G counted along it

14-3-3β (hemagglutinin [HA]-tagged) (from UniProt P31946 1-246) (natural protein)
fold reduction of binding compared to native HDAC4 [1]: 2 fold | fold reduction of binding compared to native HDAC4 [2]: 2 fold
